In patent publication US20260126425A1:

What was measured:
[1] = target: SARS-CoV-2 Spike protein (Spike trimer) (SARS-CoV-2) (UniProt P0DTC2)
[2] = target: SARS-CoV-2 Spike protein (Spike trimer) (SARS-CoV-2) (UniProt P0DTC2); remark: listed apart in the source
[3] = target: SARS-CoV-2 Spike protein (Spike trimer) (SARS-CoV-2) (UniProt P0DTC2); remark: listed apart in the source

Ty1-modified ClyA nanopore (ClyA-f-Ty1)
Kd [1]: 0.761 nM
EC50 (read off the curve) [2]: 0.6 nM
constant fit of Log10(tin (ms)) against Spike protein concentration (pM) [3]: 1.48 Log10(ms)
